Measurements from PMC314469, “Protein Interaction Networks by Proteome Peptide Scanning” (PLoS Biology, 2004).

How the values were obtained:
Assay in all cases: SPOT array
[1] = molecular target: Sho1 SH3 (SHO1_YEAST), P40073
[2] = molecular target: T1, Yhr016c SH3 (YSC84_YEAST), P32793
T1 chain: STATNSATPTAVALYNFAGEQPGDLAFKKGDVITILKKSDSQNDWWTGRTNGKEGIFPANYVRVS

[3] = molecular target: T2, Rvs167 SH3 (RV167_YEAST), P39743
T2 chain: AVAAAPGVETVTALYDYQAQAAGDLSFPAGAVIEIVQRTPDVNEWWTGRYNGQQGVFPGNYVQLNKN

[4] = molecular target: T3, Yfr024 SH3 (LSB3_YEAST), P43603
T3 chain: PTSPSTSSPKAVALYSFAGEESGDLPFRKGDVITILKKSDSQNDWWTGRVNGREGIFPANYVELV

[5] = molecular target: T4, Boi2 SH3 (BOI2_YEAST), P39969
T4 chain: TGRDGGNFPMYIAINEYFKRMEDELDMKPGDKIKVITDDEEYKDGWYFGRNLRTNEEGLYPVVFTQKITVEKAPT

[6] = molecular target: T5, Boi1 SH3 (BOI1_YEAST), P38041
T5 chain: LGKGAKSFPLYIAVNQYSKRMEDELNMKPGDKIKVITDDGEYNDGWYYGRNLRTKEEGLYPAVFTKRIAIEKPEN

[7] = molecular target: T6, Myo5 SH3 (MYO5_YEAST), Q04439
T6 chain: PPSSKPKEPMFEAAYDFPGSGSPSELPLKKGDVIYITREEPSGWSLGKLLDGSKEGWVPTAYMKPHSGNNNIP

Chain of Sho1 SH3 (SHO1_YEAST), P40073 (P40073 295-366): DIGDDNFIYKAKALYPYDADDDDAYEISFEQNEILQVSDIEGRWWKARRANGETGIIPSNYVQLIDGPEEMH

For DDNVRPSPISPSIN [YLR337C 513-526], the normalised SPOT signal, Boehringer light units (BLU); mean over the file's lines of this peptide [1] was 23.2, the normalised SPOT signal, Boehringer light units (BLU); mean over the file's lines of this peptide [2] was 18.2 and the normalised SPOT signal, Boehringer light units (BLU); mean over the file's lines of this peptide [3] was 17.2. For the same binder, the normalised SPOT signal, Boehringer light units (BLU); mean over the file's lines of this peptide [4] was 120, the normalised SPOT signal, Boehringer light units (BLU); mean over the file's lines of this peptide [5] was 18.9 and the normalised SPOT signal, Boehringer light units (BLU); mean over the file's lines of this peptide [6] was 19.1. For the same binder, the normalised SPOT signal, Boehringer light units (BLU); mean over the file's lines of this peptide [7] was 153.

SWHPKTIPKQPMEI [YGL197W 260-273] was tested, and the normalised SPOT signal, Boehringer light units (BLU); mean over the file's lines of this peptide [1] was 187, the normalised SPOT signal, Boehringer light units (BLU); mean over the file's lines of this peptide [2] was 79.8 and the normalised SPOT signal, Boehringer light units (BLU); mean over the file's lines of this peptide [3] was 90.4. The normalised SPOT signal, Boehringer light units (BLU); mean over the file's lines of this peptide [4] was 1300, the normalised SPOT signal, Boehringer light units (BLU); mean over the file's lines of this peptide [5] was 40.7 and the normalised SPOT signal, Boehringer light units (BLU); mean over the file's lines of this peptide [6] was 26.3. For the same binder, the normalised SPOT signal, Boehringer light units (BLU); mean over the file's lines of this peptide [7] was 343.

Work on DETRKLTPSSPGDD [YPR173C 368-381] yielded a normalised SPOT signal, Boehringer light units (BLU); mean over the file's lines of this peptide [1] of 33.5, a normalised SPOT signal, Boehringer light units (BLU); mean over the file's lines of this peptide [2] of 19.2 and a normalised SPOT signal, Boehringer light units (BLU); mean over the file's lines of this peptide [3] of 52.7. It also gave a normalised SPOT signal, Boehringer light units (BLU); mean over the file's lines of this peptide [4] of 62.3, a normalised SPOT signal, Boehringer light units (BLU); mean over the file's lines of this peptide [5] of 16.6 and a normalised SPOT signal, Boehringer light units (BLU); mean over the file's lines of this peptide [6] of 0. For the same binder, the normalised SPOT signal, Boehringer light units (BLU); mean over the file's lines of this peptide [7] was 231.

Binder SRHLKLVPSTPMDI [YBR128C 258-271] has a normalised SPOT signal, Boehringer light units (BLU); mean over the file's lines of this peptide [1] of 225, a normalised SPOT signal, Boehringer light units (BLU); mean over the file's lines of this peptide [2] of 40 and a normalised SPOT signal, Boehringer light units (BLU); mean over the file's lines of this peptide [3] of 83.7. It also gave a normalised SPOT signal, Boehringer light units (BLU); mean over the file's lines of this peptide [4] of 546, a normalised SPOT signal, Boehringer light units (BLU); mean over the file's lines of this peptide [5] of 102 and a normalised SPOT signal, Boehringer light units (BLU); mean over the file's lines of this peptide [6] of 441. For the same binder, the normalised SPOT signal, Boehringer light units (BLU); mean over the file's lines of this peptide [7] was 362.

For DFRGRAYPLSPHFN [YFL036W 825-838], the normalised SPOT signal, Boehringer light units (BLU); mean over the file's lines of this peptide [1] was 975, the normalised SPOT signal, Boehringer light units (BLU); mean over the file's lines of this peptide [2] was 257 and the normalised SPOT signal, Boehringer light units (BLU); mean over the file's lines of this peptide [3] was 1830. For the same binder, the normalised SPOT signal, Boehringer light units (BLU); mean over the file's lines of this peptide [4] was 1600, the normalised SPOT signal, Boehringer light units (BLU); mean over the file's lines of this peptide [5] was 1390 and the normalised SPOT signal, Boehringer light units (BLU); mean over the file's lines of this peptide [6] was 5020. It also gave a normalised SPOT signal, Boehringer light units (BLU); mean over the file's lines of this peptide [7] of 785.

For SNYSKIFPGIPISL [YOR245C 211-224], the normalised SPOT signal, Boehringer light units (BLU); mean over the file's lines of this peptide [1] was 27.6, the normalised SPOT signal, Boehringer light units (BLU); mean over the file's lines of this peptide [2] was 60.1 and the normalised SPOT signal, Boehringer light units (BLU); mean over the file's lines of this peptide [3] was 84.8. It also gave a normalised SPOT signal, Boehringer light units (BLU); mean over the file's lines of this peptide [4] of 112, a normalised SPOT signal, Boehringer light units (BLU); mean over the file's lines of this peptide [5] of 25.9 and a normalised SPOT signal, Boehringer light units (BLU); mean over the file's lines of this peptide [6] of 41. For the same binder, the normalised SPOT signal, Boehringer light units (BLU); mean over the file's lines of this peptide [7] was 49.2.

DDIIKDHPHIPNGQ [YOR360C 470-483] showed a normalised SPOT signal, Boehringer light units (BLU); mean over the file's lines of this peptide [1] of 23.4, a normalised SPOT signal, Boehringer light units (BLU); mean over the file's lines of this peptide [2] of 74 and a normalised SPOT signal, Boehringer light units (BLU); mean over the file's lines of this peptide [3] of 25.4. The normalised SPOT signal, Boehringer light units (BLU); mean over the file's lines of this peptide [4] was 34, the normalised SPOT signal, Boehringer light units (BLU); mean over the file's lines of this peptide [5] was 0.5 and the normalised SPOT signal, Boehringer light units (BLU); mean over the file's lines of this peptide [6] was 187. The normalised SPOT signal, Boehringer light units (BLU); mean over the file's lines of this peptide [7] was 57.8.

Binder DEPIRYAPGDPIEK [YNL132W 471-484] has a normalised SPOT signal, Boehringer light units (BLU); mean over the file's lines of this peptide [1] of 54.9, a normalised SPOT signal, Boehringer light units (BLU); mean over the file's lines of this peptide [2] of 9.2 and a normalised SPOT signal, Boehringer light units (BLU); mean over the file's lines of this peptide [3] of 26.2. It also gave a normalised SPOT signal, Boehringer light units (BLU); mean over the file's lines of this peptide [4] of 0.5, a normalised SPOT signal, Boehringer light units (BLU); mean over the file's lines of this peptide [5] of 1 and a normalised SPOT signal, Boehringer light units (BLU); mean over the file's lines of this peptide [6] of 57.2. The normalised SPOT signal, Boehringer light units (BLU); mean over the file's lines of this peptide [7] was 106.

Binder DEFNRNTPPQPSLL [YPL084W 526-539] has a normalised SPOT signal, Boehringer light units (BLU); mean over the file's lines of this peptide [1] of 14.3, a normalised SPOT signal, Boehringer light units (BLU); mean over the file's lines of this peptide [2] of 25.1 and a normalised SPOT signal, Boehringer light units (BLU); mean over the file's lines of this peptide [3] of 14.4. The normalised SPOT signal, Boehringer light units (BLU); mean over the file's lines of this peptide [4] was 73.4, the normalised SPOT signal, Boehringer light units (BLU); mean over the file's lines of this peptide [5] was 33.7 and the normalised SPOT signal, Boehringer light units (BLU); mean over the file's lines of this peptide [6] was 73.9. For the same binder, the normalised SPOT signal, Boehringer light units (BLU); mean over the file's lines of this peptide [7] was 118.

DFIGRKSPDLPEYL [YLL006W 228-241] showed a normalised SPOT signal, Boehringer light units (BLU); mean over the file's lines of this peptide [1] of 17.3, a normalised SPOT signal, Boehringer light units (BLU); mean over the file's lines of this peptide [2] of 37.2 and a normalised SPOT signal, Boehringer light units (BLU); mean over the file's lines of this peptide [3] of 162. It also gave a normalised SPOT signal, Boehringer light units (BLU); mean over the file's lines of this peptide [4] of 59.3, a normalised SPOT signal, Boehringer light units (BLU); mean over the file's lines of this peptide [5] of 41.4 and a normalised SPOT signal, Boehringer light units (BLU); mean over the file's lines of this peptide [6] of 137. The normalised SPOT signal, Boehringer light units (BLU); mean over the file's lines of this peptide [7] was 139.

Work on DENSKWQPSDPFTM [YOL157C 233-246] yielded a normalised SPOT signal, Boehringer light units (BLU); mean over the file's lines of this peptide [1] of 27.7, a normalised SPOT signal, Boehringer light units (BLU); mean over the file's lines of this peptide [2] of 10 and a normalised SPOT signal, Boehringer light units (BLU); mean over the file's lines of this peptide [3] of 30.2. It also gave a normalised SPOT signal, Boehringer light units (BLU); mean over the file's lines of this peptide [4] of 12.9, a normalised SPOT signal, Boehringer light units (BLU); mean over the file's lines of this peptide [5] of 27 and a normalised SPOT signal, Boehringer light units (BLU); mean over the file's lines of this peptide [6] of 91.8. For the same binder, the normalised SPOT signal, Boehringer light units (BLU); mean over the file's lines of this peptide [7] was 285.

DGKLKHIPRRPYEI [YEL007W 26-39] gave a normalised SPOT signal, Boehringer light units (BLU); mean over the file's lines of this peptide [1] of 48.8, a normalised SPOT signal, Boehringer light units (BLU); mean over the file's lines of this peptide [2] of 48.7 and a normalised SPOT signal, Boehringer light units (BLU); mean over the file's lines of this peptide [3] of 68.6. It also gave a normalised SPOT signal, Boehringer light units (BLU); mean over the file's lines of this peptide [4] of 315, a normalised SPOT signal, Boehringer light units (BLU); mean over the file's lines of this peptide [5] of 3.5 and a normalised SPOT signal, Boehringer light units (BLU); mean over the file's lines of this peptide [6] of 1850. For the same binder, the normalised SPOT signal, Boehringer light units (BLU); mean over the file's lines of this peptide [7] was 307.

For DEALRYSPDAPIVL [YNL090W 103-116], the normalised SPOT signal, Boehringer light units (BLU); mean over the file's lines of this peptide [1] was 49.5, the normalised SPOT signal, Boehringer light units (BLU); mean over the file's lines of this peptide [2] was 22.9 and the normalised SPOT signal, Boehringer light units (BLU); mean over the file's lines of this peptide [3] was 32.9. For the same binder, the normalised SPOT signal, Boehringer light units (BLU); mean over the file's lines of this peptide [4] was 50.8, the normalised SPOT signal, Boehringer light units (BLU); mean over the file's lines of this peptide [5] was 16.1 and the normalised SPOT signal, Boehringer light units (BLU); mean over the file's lines of this peptide [6] was 37.1. For the same binder, the normalised SPOT signal, Boehringer light units (BLU); mean over the file's lines of this peptide [7] was 127.
